Results: patent publication US12612465B2, “Formulations comprising PCSK9 specific monoclonal antibodies” (Amgen Inc., priority 2012, dated 2026)
Marks after values point to notes of the source that are not given here.

Tests used:
LDLR = LDLR levels in HepG2 and HepG2-PCSK9 cells with mevinolin (immunoblot); type: cell-based, human; conditions: 48 hours
Experimental: HepG2 cells were seeded in DMEM with 10% fetal bovine serum (FBS) and grown to ˜90% confluence. The cells were treated with indicated amounts of mevinolin (a statin, Sigma) and PCSK9 ABPs (FIGS. 12A-12C) in DMEM with 3% FBS for 48 hours. Total cell lysates were prepared. […] of total proteins were separated by gel electrophoresis and transferred to PVDF membrane. Immunoblots were performed using rabbit anti-human LDL receptor antibody (Fitzgerald) or rabbit anti-human b-actin antibody. The enhanced chemiluminescent results are shown in the top panels of FIGS. 12A-12C. The intensity of the bands were quantified by ImageJ software and normalized by b-actin. The relative levels of LDLR are shown in the lower panels of FIGS. 12A-12C.
HepG2-PCSK9 cells were also created. These were stable HepG2 cell line transfected with human PCSK9. The cells were seeded in DMEM with 10% fetal bovine serum (FBS) and grew to ˜90% confluence. The cells were treated with indicated amounts of mevinolin (Sigma) and PCSK9 ABPs (FIGS. 12D-12F) in DMEM with 3% FBS for 48 hours. Total cell lysates were prepared. […] of total proteins were separated by gel electrophoresis and transferred to PVDF membrane Immunoblots were performed using rabbit anti-human LDL receptor antibody (Fitzgerald) or rabbit anti-human b-actin antibody. […] The intensity of the bands were quantified by ImageJ software and normalized by b-actin.

PCSK9 [1] = target: T1, PCSK9 (Homo sapiens, UniProt Q8NBP7); assay: Phase 1b ascending multiple dose study in hyperlipidemic subjects on a statin; type: in vivo
T1 construct: endogenous in cells; host or cells: human subjects, in vivo
T1 sequence (Q8NBP7 153-692): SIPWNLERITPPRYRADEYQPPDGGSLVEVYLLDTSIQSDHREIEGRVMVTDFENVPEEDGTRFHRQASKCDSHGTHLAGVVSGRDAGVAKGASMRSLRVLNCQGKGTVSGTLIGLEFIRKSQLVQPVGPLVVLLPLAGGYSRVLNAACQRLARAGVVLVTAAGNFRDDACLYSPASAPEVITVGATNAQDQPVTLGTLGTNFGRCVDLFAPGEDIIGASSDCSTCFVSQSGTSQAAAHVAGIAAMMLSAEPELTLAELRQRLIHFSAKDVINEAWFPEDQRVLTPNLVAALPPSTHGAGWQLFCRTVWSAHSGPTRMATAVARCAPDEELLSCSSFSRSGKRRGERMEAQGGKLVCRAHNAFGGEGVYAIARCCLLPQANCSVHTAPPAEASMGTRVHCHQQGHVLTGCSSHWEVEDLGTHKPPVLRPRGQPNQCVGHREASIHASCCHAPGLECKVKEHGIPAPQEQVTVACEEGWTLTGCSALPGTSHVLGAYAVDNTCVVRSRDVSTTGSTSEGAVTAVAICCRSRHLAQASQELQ
Experimental: The study had seven cohorts. […] Cohort 6 was conducted in hypercholesterolemic subjects on high doses of a statin (atorvastatin 80 mg or rosuvastatin 40 mg).

PCSK9 [2] = target: T1, PCSK9; assay: 12 week monotherapy dose-ranging study, Framingham risk 10% or less (Example 24); type: in vivo; conditions: for Treatment difference vs ezetimibe in LDL-C percent change, week 12 / Treatment difference vs placebo in LDL-C percent change, week 12: P < 0.001; for mean percent reduction from baseline in LDL-C: monotherapy, preliminary
Experimental: Ezetimibe was not blinded. The end-of-study visit and the last estimation of lipids was at week 12 for subjects on Q4W IP schedule or on ezetimibe and week 14 for subjects on Q2W IP schedule.
Males and females, ≥18 to ≤75 years of age, were eligible for this study. Fasting LDL-C was ≥100 mg/dL (2.6 mmol/L) and ≤190 mg/dL (4.9 mmol/L) and fasting triglycerides ≤400 mg/dL (4.5 mmol/L) by central laboratory at screening.
The primary endpoint was the percent change from baseline in LDL-C at week 12. Secondary endpoints included percent changes in apolipoprotein B (ApoB), lipoprotein (a) (Lp(a)), and in the ratio of total cholesterol to high-density lipoprotein (HDL)-C. Tolerability and safety were also evaluated.

PCSK9 [3] = target: T1, PCSK9; assay: 12 week study in heterozygous familial hypercholesterolemia (Example 22); type: in vivo; conditions: HeFH, preliminary
Experimental: This study is a double-blind, randomized, stratified, placebo-controlled clinical trial evaluating the safety, tolerability, and efficacy of monocloncal antibody 21B12 in subjects having a diagnosis of HeFH. A total enrollment of 150 subjects is planned. […] Randomization will be stratified by screening LDL-C level (<130 mg/dL [3.4 mmol/L] vs ≥130 mg/dL) and ezetimibe use at baseline (yes vs no). Randomization should occur within 5-10 days of the screening LDL-C evaluation used to determine eligibility. Monoclonal antibody, 21B12, and placebo will be blinded. Study visits are at weeks 2, 4, 8, and 12. […] The end-of-study (EOS) visit and the last evaluation of lipids is at week 12.
Males and females, ≥18 to ≤75 years of age, and with a diagnosis of heterozygous familial hypercholesterolemia by the diagnostic criteria of the Simon Broome Register Group (SBRG), are eligible for this study. For enrollment, subjects must be on an approved statin, with stable dose(s) for all allowed (eg, ezetimibe, bile-acid sequestering resin, stanols, or regulatory-approved and marketed niacin (eg, Niaspan or Niacor)) lipid-regulating drugs for at least
4 weeks before LDL-C screening and, in the opinion of the investigator, not requiring uptitration. Fasting LDL-C must be ≥100 mg/dL (2.6 mmol/L) and fasting triglycerides ≤400 mg/dL (4.5 mmol/L) by central laboratory at screening.

[4] = cohorts 1-5, end of dosing interval
[5] = 350 mg Q4W SC, end of dosing interval

suppression of PCSK9 (PCSK9 [1]; cohort 3 (140 mg Q2W SC 3 times), preliminary): Near-complete suppression of PCSK9
maximum reduction in LDL-C versus placebo (PCSK9 [1]; cohort 6, high-dose statins): 73%
mean reduction in LDL-C vs placebo (PCSK9 [1]; cohort 6, high-dose statins, end of dosing interval after 3 biweekly doses): 63%
maximum LDL-C reduction versus placebo (PCSK9 [1]; cohort 7 heFH): 70%
maximum reduction of ApoB versus placebo (PCSK9 [1]; cohort 7 heFH): 57%
maximum reduction of non-HDL cholesterol versus placebo (PCSK9 [1]; cohort 7 heFH): 67%
maximum total cholesterol reduction versus placebo (PCSK9 [1]; cohort 7 heFH): 47%
mean reduction in LDL-C vs placebo (PCSK9 [1]; cohort 7 heFH, 140 mg SC Q2W 3 times, week 6): 65%
mean reduction in ApoB levels vs placebo (PCSK9 [1]; cohort 7 heFH, week 6): up to 47%
mean reduction in lipoprotein a (Lp(a)) vs placebo (PCSK9 [1]; cohort 7 heFH, week 6): 50%
mean reduction in non-HDL cholesterol vs placebo (PCSK9 [1]; cohort 7 heFH, week 6): 61%
mean reduction in serum PCSK9 values vs placebo (PCSK9 [1]; cohort 7 heFH, week 6): 78%
mean reduction in total cholesterol vs placebo (PCSK9 [1]; cohort 7 heFH, week 6): up to 42%
maximum ApoB reduction vs placebo (PCSK9 [1]; cohorts 1-5): up to 59%
mean LDL-C reduction vs placebo at maximal reduction (PCSK9 [1]; cohorts 1-5, low to moderate statin doses): up to 81%
mean ApoB reduction vs placebo (PCSK9 [1]; [4]): up to 54%
mean reduction of PCSK9 levels vs placebo (PCSK9 [1]; [4]): up to 94%
mean LDL-C reduction vs placebo at end of dosing interval (PCSK9 [1]; cohorts 1-5, week 6 after 3 biweekly SC doses): ≤ 75%
mean LDL-C reduction at end of dosing interval (PCSK9 [1]; cohorts 1-5, week 8 after 2 every 4 week SC doses): ≤ 66%
mean Lp(a) reduction vs placebo (PCSK9 [1]; cohorts 1-6, end of dosing interval): up to 43%
circulating PCSK9 after treatment (PCSK9 [1]; heFH subjects): undetectable
plasma PCSK9 (PCSK9 [1]; higher doses): undetectable
decrease in circulating LDL-C vs placebo (PCSK9 [1]; repeated SC doses over 6 weeks, low-to-moderate or high-dose statins): up to 81%
LDL-C nadir observed after initial dosing (PCSK9 [1]; subjects on stable moderate statin doses, preliminary): ≤ 2 weeks
Least squares mean percent change from baseline in LDL-C, week 12 (PCSK9 [2]; 70 mg Q2W SC (N = 45)): −40.98%
Treatment difference vs ezetimibe in LDL-C percent change, week 12 (PCSK9 [2]; 70 mg Q2W SC): −26.73* %
Treatment difference vs placebo in LDL-C percent change, week 12 (PCSK9 [2]; 70 mg Q2W SC): −37.27* %
mean percent reduction from baseline in LDL-C (PCSK9 [2]; 70 mg Q2W SC, end of dosing interval): 41.21%
Least squares mean percent change from baseline in LDL-C, week 12 (PCSK9 [2]; 105 mg Q2W SC (N = 46)): −43.87%
Treatment difference vs ezetimibe in LDL-C percent change, week 12 (PCSK9 [2]; 105 mg Q2W SC): −29.62* %
Treatment difference vs placebo in LDL-C percent change, week 12 (PCSK9 [2]; 105 mg Q2W SC): −40.17* %
mean percent reduction from baseline in LDL-C (PCSK9 [2]; 105 mg Q2W SC, end of dosing interval): 45.44%
Least squares mean percent change from baseline in LDL-C, week 12 (PCSK9 [2]; 140 mg Q2W SC (N = 45)): −50.93%
Treatment difference vs ezetimibe in LDL-C percent change, week 12 (PCSK9 [2]; 140 mg Q2W SC): −36.68* %
Treatment difference vs placebo in LDL-C percent change, week 12 (PCSK9 [2]; 140 mg Q2W SC): −47.23* %
mean percent reduction from baseline in LDL-C (PCSK9 [2]; 140 mg Q2W SC): 51.56%
Least squares mean percent change from baseline in LDL-C, week 12 (PCSK9 [2]; 280 mg Q4W SC (N = 45)): −39.02%
Treatment difference vs ezetimibe in LDL-C percent change, week 12 (PCSK9 [2]; 280 mg Q4W SC): −25.17* %
Treatment difference vs placebo in LDL-C percent change, week 12 (PCSK9 [2]; 280 mg Q4W SC): −43.57* %
mean percent reduction from baseline in LDL-C (PCSK9 [2]; 280 mg Q4W SC, end of dosing interval): 37.53%
Least squares mean percent change from baseline in LDL-C, week 12 (PCSK9 [2]; 350 mg Q4W SC (N = 45)): −43.20%
Treatment difference vs ezetimibe in LDL-C percent change, week 12 (PCSK9 [2]; 350 mg Q4W SC): −29.34* %
Treatment difference vs placebo in LDL-C percent change, week 12 (PCSK9 [2]; 350 mg Q4W SC): −47.74* %
mean percent reduction from baseline in LDL-C (PCSK9 [2]; [5]): 42.16%
Least squares mean percent change from baseline in LDL-C, week 12 (PCSK9 [2]; 420 mg Q4W SC (N = 45)): −47.98%
Treatment difference vs ezetimibe in LDL-C percent change, week 12 (PCSK9 [2]; 420 mg Q4W SC): −34.14* %
Treatment difference vs placebo in LDL-C percent change, week 12 (PCSK9 [2]; 420 mg Q4W SC): −52.53* %
mean percent reduction from baseline in LDL-C (PCSK9 [2]; 420 mg Q4W SC): 47.52%
change in LDL-C from baseline to week 12 greater than with placebo (PCSK9 [2]; final data): up to 72 mg/dL
mean reduction from baseline for ApoB (PCSK9 [2]; final data): up to 44%
mean reduction from baseline for Lp(a) (PCSK9 [2]; final data): up to 29%
LDL-C reductions from baseline greater than ezetimibe (PCSK9 [2]; week 12, final data): 37%
least-squares (LS) mean percent reduction from baseline in LDL-C (PCSK9 [2]; week 12, final data, across dose regimens): up to 51%
LS mean percent increase from baseline in HDL-C (PCSK9 [3]; [5]): 15.39%
LS mean percent reduction from baseline in LDL-C (PCSK9 [3]; [5]): 38.46%
LS mean percent reduction from baseline in Lp(a) (PCSK9 [3]; [5]): 21.69%
LS mean percent reduction from baseline in VLDL-C (PCSK9 [3]; [5]): 17.16%
LS mean percent reduction from baseline in non-HDL cholesterol (PCSK9 [3]; [5]): 36.16%
LS mean percent reduction from baseline in total cholesterol (PCSK9 [3]; [5]): 24.82%
LS mean percent reduction from baseline in triglycerides (PCSK9 [3]; [5]): 17.24%
LS mean percent increase from baseline in HDL-C (PCSK9 [3]; 420 mg Q4W SC): 6.77%
LS mean percent reduction from baseline in LDL-C (PCSK9 [3]; 420 mg Q4W SC): 45.68%
LS mean percent reduction from baseline in Lp(a) (PCSK9 [3]; 420 mg Q4W SC): 28.23%
LS mean percent reduction from baseline in VLDL-C (PCSK9 [3]; 420 mg Q4W SC): 18.49%
LS mean percent reduction from baseline in non-HDL cholesterol (PCSK9 [3]; 420 mg Q4W SC): 41.81%
LS mean percent reduction from baseline in total cholesterol (PCSK9 [3]; 420 mg Q4W SC): 29.45%
LS mean percent reduction from baseline in triglycerides (PCSK9 [3]; 420 mg Q4W SC): 4.56%
B1: 21B12: human anti-PCSK9 monoclonal antibody, light/heavy variable region SEQ ID NO 23/49 (antibody, listed as Homo sapiens, V domains shown)
VH: QVQLVQSGAEVKKPGASVKVSCKASGYTLTSYGISWVRQAPGQGLEWMGWVSFYNGNTNYAQKLQGRGTMTTDPSTSTAYMELRSLRSDDTAVYYCARGYGMDVWGQGTTVTVSS
VL: QSALTQPASVSGSPGQSITISCTGTSSDVGGYNSVSWYQQHPGKAPKLMIYEVSNRPSGVSNRFSGSKSGNTASLTISGLQAEDEADYYCNSYTSTSMVFGGGTKLTVL
LDLR levels compared with the non-neutralizer 25A7.1 (LDLR): greater increase in LDLR levels
serious AEs (PCSK9 [1]; repeated SC doses over 6 weeks): no serious AEs
